The values below come from article PMC7105229.

Where two headings read alike, the source gives them in different places.

For assay [1], the target named is Vibrio vulnificus FAN1 (Vibrio vulnificus). The assay can be described thus: SEC. (SEC sorts molecules by how far they enter the pores of the column.)
Assay [2] has the same target. The assay can be described thus: SEC. This is another data set of the same source.

As a reminder, the stoichiometry N is a count of units in the complex or per binding partner. With Vibrio vulnificus FAN1 (enzyme), the stoichiometry N in assay [1] and in assay [2] was 2 in each case.
